Measurements published in patent publication US20110190200A1 (INDIANA UNIVERSITY RESEARCH AND TECHNOLOGY, published 2011).
Read-outs that look alike come from different tables or passages of the source. Numbered stars: 1 amine (or outer) side, 2 acyl side, 3 side chain; on linkers, the order of the positions; unused ones are H or OH. Square brackets hold non-standard residues; d marks the D form. Side chains are listed from the residue outwards. Ends that are not written are not given here. * marks the point of attachment. γGlu = O=C(O)[C@H](CCC(=O)[*:2])N[*:1]; Palmitoyl = CCCCCCCCCCCCCCCC(=O)*; Myristoyl = CCCCCCCCCCCCCC(=O)*; Dab = NCC[C@H](N)C(=O)O; Aib = CC(C)(N)C(=O)O

Tests used:
Experiment in all cases: cell-based or functional assay
[1] = molecular target: T1, glucagon receptor (human, UniProt P47871 26-477)
[2] = molecular target: T1, glucagon receptor; remark: listed apart in the source
[3] = molecular target: T2, GLP-1 receptor (UniProt P43220 24-463, limits assumed)
[4] = molecular target: T1, glucagon receptor; remark: listed apart in the source
[5] = molecular target: T2, GLP-1 receptor; remark: listed apart in the source
Target sequence in this assay (P43220 24-463 limits assumed): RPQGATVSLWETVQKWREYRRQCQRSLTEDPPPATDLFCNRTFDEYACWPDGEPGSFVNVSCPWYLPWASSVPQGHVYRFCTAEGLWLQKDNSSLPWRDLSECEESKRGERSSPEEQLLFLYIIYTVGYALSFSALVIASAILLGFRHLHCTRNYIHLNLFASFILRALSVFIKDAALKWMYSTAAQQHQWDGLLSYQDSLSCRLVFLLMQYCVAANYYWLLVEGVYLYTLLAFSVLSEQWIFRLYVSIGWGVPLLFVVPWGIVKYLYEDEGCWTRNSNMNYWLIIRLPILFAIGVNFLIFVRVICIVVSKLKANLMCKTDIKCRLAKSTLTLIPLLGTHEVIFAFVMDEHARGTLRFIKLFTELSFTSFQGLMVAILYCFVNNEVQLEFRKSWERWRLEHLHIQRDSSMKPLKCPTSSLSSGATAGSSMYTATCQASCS

[6] = molecular target: T1, glucagon receptor; remark: listed apart in the source
[7] = molecular target: T2, GLP-1 receptor; remark: listed apart in the source

T1 sequence (P47871 26-477): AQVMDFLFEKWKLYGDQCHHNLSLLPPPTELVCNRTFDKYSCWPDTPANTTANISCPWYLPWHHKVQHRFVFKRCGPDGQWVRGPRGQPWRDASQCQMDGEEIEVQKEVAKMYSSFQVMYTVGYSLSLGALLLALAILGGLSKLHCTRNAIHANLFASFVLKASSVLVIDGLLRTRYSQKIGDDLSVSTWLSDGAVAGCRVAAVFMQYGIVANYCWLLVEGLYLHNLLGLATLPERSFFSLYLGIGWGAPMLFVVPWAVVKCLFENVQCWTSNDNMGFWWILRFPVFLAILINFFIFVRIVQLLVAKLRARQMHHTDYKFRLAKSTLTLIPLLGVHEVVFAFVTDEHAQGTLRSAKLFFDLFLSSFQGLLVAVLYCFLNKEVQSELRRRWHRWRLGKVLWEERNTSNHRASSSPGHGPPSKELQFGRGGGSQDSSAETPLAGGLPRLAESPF

B1: HSDab(Ac)…ibRRAADFVAWLLDTGPSSGAPPPS amide (peptide)
peptide: HS[Dab](Ac)GTFTSDYSKYLD[Aib]RRAADFVAWLLDTGPSSGAPPPS-NH2
modifications: N-terminus assumed
SMILES: CC(=O)NCC[C@H](NC(=O)[C@H](CO)NC(=O)[C@@H](N)Cc1c[nH]cn1)C(=O)NCC(=O)N[C@H](C(=O)N[C@@H](Cc1ccccc1)C(=O)N[C@H](C(=O)N[C@@H](CO)C(=O)N[C@@H](CC(=O)O)C(=O)N[C@@H](Cc1ccc(O)cc1)C(=O)N[C@@H](CO)C(=O)N[C@@H](CCCCN)C(=O)N[C@@H](Cc1ccc(O)cc1)C(=O)N[C@@H](CC(C)C)C(=O)N[C@@H](CC(=O)O)C(=O)NC(C)(C)C(=O)N[C@@H](CCCNC(=N)N)C(=O)N[C@@H](CCCNC(=N)N)C(=O)N[C@@H](C)C(=O)N[C@@H](C)C(=O)N[C@@H](CC(=O)O)C(=O)N[C@@H](Cc1ccccc1)C(=O)N[C@H](C(=O)N[C@@H](C)C(=O)N[C@@H](Cc1c[nH]c2ccccc12)C(=O)N[C@@H](CC(C)C)C(=O)N[C@@H](CC(C)C)C(=O)N[C@@H](CC(=O)O)C(=O)N[C@H](C(=O)NCC(=O)N1CCC[C@H]1C(=O)N[C@@H](CO)C(=O)N[C@@H](CO)C(=O)NCC(=O)N[C@@H](C)C(=O)N1CCC[C@H]1C(=O)N1CCC[C@H]1C(=O)N1CCC[C@H]1C(=O)N[C@@H](CO)C(N)=O)[C@@H](C)O)C(C)C)[C@@H](C)O)[C@@H](C)O
% activity* [1]: 113%
EC50 (nM) at Glucagon Receptor [1]: 0.023 nM

B2: Peptide 80** (Table 11) (peptide)
peptide: H[Aib]QGTFTSDK([γGlu-γGlu-Palmitoyl])SKYLD[Aib]RRAQDFVCWLMNT-NH2
modifications: N-terminus assumed
SMILES: CCCCCCCCCCCCCCCC(=O)N[C@@H](CCC(=O)N[C@@H](CCC(=O)NCCCC[C@H](NC(=O)[C@H](CC(=O)O)NC(=O)[C@H](CO)NC(=O)[C@@H](NC(=O)[C@H](Cc1ccccc1)NC(=O)[C@@H](NC(=O)CNC(=O)[C@H](CCC(N)=O)NC(=O)C(C)(C)NC(=O)[C@@H](N)Cc1c[nH]cn1)[C@@H](C)O)[C@@H](C)O)C(=O)N[C@@H](CO)C(=O)N[C@@H](CCCCN)C(=O)N[C@@H](Cc1ccc(O)cc1)C(=O)N[C@@H](CC(C)C)C(=O)N[C@@H](CC(=O)O)C(=O)NC(C)(C)C(=O)N[C@@H](CCCNC(=N)N)C(=O)N[C@@H](CCCNC(=N)N)C(=O)N[C@@H](C)C(=O)N[C@@H](CCC(N)=O)C(=O)N[C@@H](CC(=O)O)C(=O)N[C@@H](Cc1ccccc1)C(=O)N[C@H](C(=O)N[C@@H](CS)C(=O)N[C@@H](Cc1c[nH]c2ccccc12)C(=O)N[C@@H](CC(C)C)C(=O)N[C@@H](CCSC)C(=O)N[C@@H](CC(N)=O)C(=O)N[C@H](C(N)=O)[C@@H](C)O)C(C)C)C(=O)O)C(=O)O
EC50 at Glucagon Receptor [2]: 0.006 nM
EC50 at GLP-1 Receptor [3]: 0.008 nM

B3: glucagon analog K29, K30 (peptide)
peptide: HSQGTFTSDYSKYLDSRRAQDFVQWLMNKK
Observed EC50s (nM) in Cells Overexpressing the Glucagon Receptor, Test 1 [4]: 0.89 nM

B4: HSDab(Ac)…ibRRASDFVSWLLDE (peptide)
peptide: HS[Dab](Ac)GTFTSDYSKYLD[Aib]RRASDFVSWLLDE
% activity* [1]: 54%
EC50 (nM) at Glucagon Receptor [1]: 0.048 nM

B5: glucagon analog D28, E30 (peptide)
peptide: HSQGTFTSDYSKYLDSRRAQDFVQWLMDTE
Observed EC50s (nM) in Cells Overexpressing the Glucagon Receptor, Test 3 [4]: 0.05 nM

B6: glucagon analog K30, K31 (peptide)
peptide: HSQGTFTSDYSKYLDSRRAQDFVQWLMNTKK
Observed EC50s (nM) in Cells Overexpressing the Glucagon Receptor, Test 2 [4]: 0.12 nM

B7: Peptide Chimera 2-AIB2-K10-acylated (peptide)
peptide: H[Aib]QGTFTSDK(C18 fatty acyl)SKYLDEQAAKEFIC(PEG 40 kDa)WLMNT-NH2
EC50 at the GLP-1 receptor [5]: 0.007 nM

B8: HSDab(Ac)…ibRRATDFVTWLLDE (peptide)
peptide: HS[Dab](Ac)GTFTSDYSKYLD[Aib]RRATDFVTWLLDE
% activity* [1]: 46%
EC50 (nM) at Glucagon Receptor [1]: 0.057 nM

B9: Peptide 79* (Table 10) (peptide)
peptide: H[Aib]QGTFTSDK([Ala-Ala-Palmitoyl])SKYLD[Aib]RRAQDFVC(PEG 40 kDa)WLMNT-NH2
EC50 at Glucagon Receptor [6]: 0.102 nM
EC50 at GLP-1 Receptor [7]: 0.055 nM

B10: Peptide 78** (Table 11) (peptide)
peptide: H[Aib]QGTFTSDK([γGlu-γGlu-Myristoyl])SKYLD[Aib]RRAQDFVCWLMNT-NH2
modifications: N-terminus assumed
SMILES: CCCCCCCCCCCCCC(=O)N[C@@H](CCC(=O)N[C@@H](CCC(=O)NCCCC[C@H](NC(=O)[C@H](CC(=O)O)NC(=O)[C@H](CO)NC(=O)[C@@H](NC(=O)[C@H](Cc1ccccc1)NC(=O)[C@@H](NC(=O)CNC(=O)[C@H](CCC(N)=O)NC(=O)C(C)(C)NC(=O)[C@@H](N)Cc1c[nH]cn1)[C@@H](C)O)[C@@H](C)O)C(=O)N[C@@H](CO)C(=O)N[C@@H](CCCCN)C(=O)N[C@@H](Cc1ccc(O)cc1)C(=O)N[C@@H](CC(C)C)C(=O)N[C@@H](CC(=O)O)C(=O)NC(C)(C)C(=O)N[C@@H](CCCNC(=N)N)C(=O)N[C@@H](CCCNC(=N)N)C(=O)N[C@@H](C)C(=O)N[C@@H](CCC(N)=O)C(=O)N[C@@H](CC(=O)O)C(=O)N[C@@H](Cc1ccccc1)C(=O)N[C@H](C(=O)N[C@@H](CS)C(=O)N[C@@H](Cc1c[nH]c2ccccc12)C(=O)N[C@@H](CC(C)C)C(=O)N[C@@H](CCSC)C(=O)N[C@@H](CC(N)=O)C(=O)N[C@H](C(N)=O)[C@@H](C)O)C(C)C)C(=O)O)C(=O)O
EC50 at Glucagon Receptor [2]: 0.009 nM
EC50 at GLP-1 Receptor [3]: 0.008 nM

B11: Peptide Chimera 2-AIB2-K30-acylated (peptide)
peptide: HXQGTFTSDYSKYLDEQAAKEFICWLMNTK
modifications: AIB at position 2; Lys at position 30 acylated with a C18 fatty acyl group; Cys at position 24 comprises a 40 kDa PEG molecule; C-terminal amide
EC50 at the GLP-1 receptor [5]: 0.465 nM

B12: glucagon analog E30 (peptide)
peptide: HSQGTFTSDYSKYLDSRRAQDFVQWLMNTE
Observed EC50s (nM) in Cells Overexpressing the Glucagon Receptor, Test 2 [4]: 0.04 nM

B13: Peptide 80* (Table 10) (peptide)
peptide: H[Aib]QGTFTSDK([γGlu-γGlu-Palmitoyl])SKYLD[Aib]RRAQDFVC(PEG 40 kDa)WLMNT-NH2
EC50 at Glucagon Receptor [6]: 0.108 nM
EC50 at GLP-1 Receptor [7]: 0.042 nM

B14: Peptide 77** (Table 11) (peptide)
peptide: H[Aib]QGTFTSDK(Myristoyl)SKYLD[Aib]RRAQDFVCWLMNT-NH2
modifications: N-terminus assumed
SMILES: CCCCCCCCCCCCCC(=O)NCCCC[C@H](NC(=O)[C@H](CC(=O)O)NC(=O)[C@H](CO)NC(=O)[C@@H](NC(=O)[C@H](Cc1ccccc1)NC(=O)[C@@H](NC(=O)CNC(=O)[C@H](CCC(N)=O)NC(=O)C(C)(C)NC(=O)[C@@H](N)Cc1c[nH]cn1)[C@@H](C)O)[C@@H](C)O)C(=O)N[C@@H](CO)C(=O)N[C@@H](CCCCN)C(=O)N[C@@H](Cc1ccc(O)cc1)C(=O)N[C@@H](CC(C)C)C(=O)N[C@@H](CC(=O)O)C(=O)NC(C)(C)C(=O)N[C@@H](CCCNC(=N)N)C(=O)N[C@@H](CCCNC(=N)N)C(=O)N[C@@H](C)C(=O)N[C@@H](CCC(N)=O)C(=O)N[C@@H](CC(=O)O)C(=O)N[C@@H](Cc1ccccc1)C(=O)N[C@H](C(=O)N[C@@H](CS)C(=O)N[C@@H](Cc1c[nH]c2ccccc12)C(=O)N[C@@H](CC(C)C)C(=O)N[C@@H](CCSC)C(=O)N[C@@H](CC(N)=O)C(=O)N[C@H](C(N)=O)[C@@H](C)O)C(C)C
EC50 at Glucagon Receptor [2]: 0.144 nM
EC50 at GLP-1 Receptor [3]: 0.063 nM

B15: Peptide 81** (Table 11) (peptide)
peptide: H[Aib]QGTFTSDK([Ala-Ala-Myristoyl])SKYLD[Aib]RRAQDFVCWLMNT-NH2
modifications: N-terminus assumed
SMILES: CCCCCCCCCCCCCC(=O)N[C@@H](C)C(=O)N[C@@H](C)C(=O)NCCCC[C@H](NC(=O)[C@H](CC(=O)O)NC(=O)[C@H](CO)NC(=O)[C@@H](NC(=O)[C@H](Cc1ccccc1)NC(=O)[C@@H](NC(=O)CNC(=O)[C@H](CCC(N)=O)NC(=O)C(C)(C)NC(=O)[C@@H](N)Cc1c[nH]cn1)[C@@H](C)O)[C@@H](C)O)C(=O)N[C@@H](CO)C(=O)N[C@@H](CCCCN)C(=O)N[C@@H](Cc1ccc(O)cc1)C(=O)N[C@@H](CC(C)C)C(=O)N[C@@H](CC(=O)O)C(=O)NC(C)(C)C(=O)N[C@@H](CCCNC(=N)N)C(=O)N[C@@H](CCCNC(=N)N)C(=O)N[C@@H](C)C(=O)N[C@@H](CCC(N)=O)C(=O)N[C@@H](CC(=O)O)C(=O)N[C@@H](Cc1ccccc1)C(=O)N[C@H](C(=O)N[C@@H](CS)C(=O)N[C@@H](Cc1c[nH]c2ccccc12)C(=O)N[C@@H](CC(C)C)C(=O)N[C@@H](CCSC)C(=O)N[C@@H](CC(N)=O)C(=O)N[C@H](C(N)=O)[C@@H](C)O)C(C)C
EC50 at GLP-1 Receptor [3]: 0.018 nM

B16: glucagon analog D28, E15 (peptide)
peptide: HSQGTFTSDYSKYLESRRAQDFVQWLMDT
Observed EC50s (nM) in Cells Overexpressing the Glucagon Receptor, Test 3 [4]: 0.15 nM
